“Also recorded” adds a separate entry of the source. Like-named read-outs stand apart in the source and are kept apart here.
Assays:
C3G-peptide [1] = target: T1, C3G-peptide (Homo sapiens, UniProt Q13905); assay: Binding of Crk-N to the C3G-peptide in solution; settings: purified synthetic Crk-N
T1 construct: made in house; host or cells: chemical synthesis
Source text: FIG. 3 illustrates preliminary iterative signature analysis data on residues 156-165 of the peptide Crk-N. a) Represents a comparison of the elution profiles obtained for the protein family using a C3G-peptide agarose column and a Leucine-Enkephalin agarose column (control). […] Single letters refer to amino acid pairs substituted with the -Gly-SCH2CH2CO— marker. d) Comparison of the MALDI MS spectra of the ammonium acetate wash and the entire 9 component synthetic Crk-N family cleaved with ammonium acetate. In both cases the N-terminal peptide ladder is observed at a much higher intensity than the equimolar C-terminal peptide ladder.
The folded protein was structurally characterized by NMR and crystallization (The folded protein was characterized by two dimensional NOESY 1H NMR spectroscopy. In addition, the synthetic protein solution used for NMR analysis spontaneously formed crystals upon storage at 4° C. These crystals diffracted to >2.3 Å allowing for the solution by molecular replacement. Refinement of the structure is in progress). The resulting synthetic protein domain was then assayed for its affinity for two different proline-rich peptides. […] This change in solvent exposure leads to an increase in the fluorescence intensity of the tryptophan sidechain which can be monitored as a function of increasing ligand concentration (Feng et al. Science 1994.266, 1241-1245). […]

[2] = target: T2, C3G-derived synthetic peptide (Homo sapiens, UniProt Q13905); assay: C3G-derived synthetic peptide affinity column binding with MALDI readout; settings: Gly-[COS]-βAla analogue unit; 19-member array, residues 146-165 of c-Crk SH3 domain (Example 3)
T2 construct: made in house; host or cells: chemical synthesis on 4-methyl benzhydrylamine resin
Protocol: An affinity column carrying a synthetic C3G derived peptide was prepared by reaction of the cysteine side chain of Acetyl-CWAcp-[…].amide (SEQ NO ID NO 14) with an iodoacetylated agarose matrix. The linker Acetyl-CWAcp- was designed to combine a reactive sulfhydryl on the Cys sidechain with a spectroscopic tag in the Trp residue, and to introduce a flexible spacer region between the support and the peptide ligand in the form of ε-aminocaproic acid. The amount of peptide on the column, was determined as 5 μmol/mL of the swollen agarose matrix from the absorbance at 280 nm of the peptide solution before and after reaction with the column.
The column was then washed with 0.5 M NaCl buffer to remove nonspecific binding proteins from the column. Specifically bound protein analogues were then eluted with 1 M hydroxylamine bufffer. Amounts of eluted peptide were monitored by UV absorbance at 280 nm. This procedure was used for both the C3G peptide column and for the control column loaded with Ac-C-AcpYGGFL.amide. The hydroxylamine cleavage of the thioester bond results in the elution of peptide fragments corresponding to the proteins which were able to bind to the affinity column under these conditions. Specific binding was found only for the C3G peptide column.
The composition of the parent array of SH3 protein analogues, as well as the binding and non-binding fractions obtained from affinity chromatography was determined by chemical cleavage and MALDI MS. First, the parent array of folded protein analogues and the 0.5 M NaCl wash from the affinity chromatography of the array were cleaved separately with hydroxylamine. After a desalting step, MALDI mass spectra were obtained for the peptide fragments generated from the (parent) protein array, the salt wash (non-binding) and for the peptide fragments generated by the hydroxylamine elution of the specifically bound analogues (binding). Nine components were present in the array of protein analogues that was added to the C3G column as one mixture (FIG. 26A). […] Three protein analogues, however, were able to bind to the C3G peptide on the column and were eluted only after cleavage with hydroxylamine (FIG. 26C). One of the protein analogues can be identified in both the wash and elution spectra, indicating intermediate folding and/or binding properties for this analogue.
The C3G-derived synthetic peptide affinity column was prepared by adding 10 mg of lyophilized Ac-CWAcp[…].amide (SEQ ID NO 24) (Acp=ε-amino caproic acid) in 2 mL of 50 mM Tris, 5 mM EDTA, pH 8.0 buffer to Sulfolink™ resin (Pierce), equilibrated in the same buffer, for 1 hour while shaking. Unreacted iodoalkyl groups on the resin were then blocked by treatment with 50 mM cystamine, 50 mM Tris, 5 mM EDTA, pH 8.0 buffer for 1 hour. The loading of the column was determined by UV absorbance of the unreacted peptide solution and was approximately 5 μmol/mL. A similar procedure was used to attach the control peptide Ac-CAcpYGGFL.amide (SEQ ID NO 25) to the another batch of the Sulfolink™ support.
Lyophilized crude synthetic polypeptide corresponding to the cCrk SH3 domain (1.5 mg) and BSA (8.5 mg) were dissolved in 20 mM HEPES, 50 mM NaCl, pH 7.3 buffer (400 μL) and loaded on to a 1 mL C3G-derived synthetic peptide affinity column pre-equilibrated with the same buffer. The column was washed with 4 mL each of 50 mM NaCl, 100 mM NaCl, 200 mM NaCl, 300 mM NaCl, 400 mM NaCl, 500 mM NaCl and 1000 mM NaCl, 0.1 M phosphate, pH 7.0 buffer. The column was then washed with 1 M NH2OH 200 mM NH4CO3 pH 6.0 (4 mL) and finally eluted in 6M Gn.HCl 100 mM phosphate pH 6.5 (4 mL). Samples from all column fractions were monitored by absorbance at 280 nm and by HPLC.
Affinity chromatography of the arrays of protein analogues was carried out as follows. […]

C3G-peptide [3] = target: T1, C3G-peptide; settings: recombinant Crk-N; read-out: KD for binding the C3G-peptide in solution; cited from earlier work

| Compound | binding to C3G peptide affinity column, active (binding) pool [2] | also measured |
| --- | --- | --- |
| CC[C@H](C)[C@H](NC(=O)[C@H](CC(=O)O)NC(=O)CNC(=O)[C@H](CCCCN)NC(=O)[C@H](CCCCN)NC(=O)[C@H](Cc1ccccc1)NC(=O)[C@@H]1CCCN1C(=O)[C@H](CC(C)C)NC(=O)[C@H](CC(=O)O)NC(=O)[C@H](CCC(=O)O)NC(=O)[C@H](CCC(=O)O)NC(=O)[C@H](CC(=O)O)NC(=O)[C@H](CC(N)=O)NC(=O)CNC(=O)[C@H](CC(N)=O)NC(=O)[C@H](Cc1ccccc1)NC(=O)[C@H](CC(=O)O)NC(=O)[C@H](Cc1ccccc1)NC(=O)[C@H](CC(C)C)NC(=O)[C@H](C)NC(=O)[C@H](CCCNC(=N)N)NC(=O)[C@@H](NC(=O)[C@H](Cc1ccc(O)cc1)NC(=O)[C@H](CCC(=O)O)NC(=O)[C@H](C)N)C(C)C)C(=O)N[C@@H](CC(C)C)C(=O)N[C@@H](CCCNC(=N)N)C(=O)N[C@H](C(=O)N[C@@H](CCCNC(=N)N)C(=O)N[C@@H](CC(=O)O)C(=O)N[C@@H](CCCCN)C(=O)N1CCC[C@H]1C(=O)N[C@@H](CCC(=O)O)C(=O)N[C@@H](CCC(=O)O)C(=O)N[C@@H](CCC(N)=O)C(=O)N[C@@H](Cc1c[nH]c2ccccc12)C(=O)N[C@@H](Cc1c[nH]c2ccccc12)C(=O)N[C@@H](CC(N)=O)C(=O)N[C@@H](C)C(=O)N[C@@H](CCC(=O)O)C(=O)N[C@@H](CC(=O)O)C(=O)N[C@@H](CO)C(=O)N[C@@H](CCC(=O)O)C(=O)NCC(=O)N[C@@H](CCCCN)C(=O)N[C@@H](CCCNC(=N)N)C(=O)NCC(=O)N[C@@H](CCSC)C(=O)N[C@H](C(=O)N1CCC[C@H]1C(=O)N[C@H](C(=O)N1CCC[C@H]1C(=O)N[C@@H](Cc1ccc(O)cc1)C(=O)N[C@H](C(=O)N[C@@H](CCC(=O)O)C(=O)N[C@@H](CCCCN)C(=O)N[C@@H](Cc1ccc(O)cc1)C(=O)N[C@@H](CCCNC(=N)N)C(=O)O)C(C)C)C(C)C)[C@@H](C)CC)[C@@H](C)CC [synthetic Crk-N] | – | Kd (C3G-peptide [1]): 2300 nM |
| D^147E^148: c-Crk SH3 domain analogue, dipeptide D147E148 replaced by Gly-[COS]-βAla | displayed appreciable binding | – |
| D^163K^164: c-Crk SH3 domain analogue, dipeptide D163K164 replaced by Gly-[COS]-βAla | displayed appreciable binding; also recorded: without significant loss of binding activity | – |
| E^148E^149: c-Crk SH3 domain analogue, dipeptide E148E149 replaced by Gly-[COS]-βAla | displayed appreciable binding | – |
| I^161R^162: c-Crk SH3 domain analogue, dipeptide I161R162 replaced by Gly-[COS]-βAla | displayed appreciable binding; also recorded: without significant loss of binding activity | – |
| K^164P^165: c-Crk SH3 domain analogue, dipeptide K164P165 replaced by Gly-[COS]-βAla | displayed appreciable binding; also recorded: without significant loss of binding activity | – |
| L^151P^152: c-Crk SH3 domain analogue, dipeptide L151P152 replaced by Gly-[COS]-βAla | displayed appreciable binding | – |
| N^146D^147: c-Crk SH3 domain analogue, dipeptide N146D147 replaced by Gly-[COS]-βAla | displayed appreciable binding | – |
| R^162D^163: c-Crk SH3 domain analogue, dipeptide R162D163 replaced by Gly-[COS]-βAla | displayed appreciable binding; also recorded: without significant loss of binding activity | – |
| recombinant Crk-N: recombinantly derived cCrk SH3 domain reported by Wu et al. Structure 1995 | – | Kd (C3G-peptide [3]): 1900 nM |

Source: patent US6495314B1, “Process for characterizing proteins” (The Scripps Research Institute, priority 1995, dated 2002)
